Source: US20220204629A1

Experiments:
[1] = target: mouse Galectin-9 CRD2 (residues 226-353) (mouse) (UniProt O08573); assay: biolayer interferometry, G9.2-17 captured on anti-Fab probes, mouse gal-9 CRD2 in solution, global fit
[2] = target: mouse Galectin-9 CRD2 (residues 226-353) (mouse) (UniProt O08573); assay: SPR, One Step method, Pioneer; mouse CRD2
[3] = target: mouse Galectin-9 CRD2 (residues 226-353) (mouse) (UniProt O08573); assay: bead based binding, mouse CRD2
[4] = target: galectin-9 on the cell surface of the CRL-2134 cell line (human) (UniProt O00182); assay: flow cytometry, saturation curve on CRL-2134 cells
[5] = target: recombinant, full length human Galectin-9 (R&D Systems 2045-GA) (human) (UniProt O00182); assay: cell-based or functional assay
Chain of recombinant, full length human Galectin-9 (R&D Systems 2045-GA) (human) (O00182 other isoform, or with tags, fused parts or gaps limits assumed): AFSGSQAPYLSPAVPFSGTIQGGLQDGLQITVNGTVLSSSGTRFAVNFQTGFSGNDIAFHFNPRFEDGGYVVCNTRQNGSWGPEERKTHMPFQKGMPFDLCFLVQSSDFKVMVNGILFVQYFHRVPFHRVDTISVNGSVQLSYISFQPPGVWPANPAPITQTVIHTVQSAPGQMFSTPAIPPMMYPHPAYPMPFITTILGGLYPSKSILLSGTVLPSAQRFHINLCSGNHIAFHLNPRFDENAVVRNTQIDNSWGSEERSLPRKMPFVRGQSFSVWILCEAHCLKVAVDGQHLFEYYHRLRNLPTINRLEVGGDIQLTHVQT

[6] = target: galectin-9 on the cell surface of the CRL-2134 cell line (human) (UniProt O00182); assay: cell based binding, flow cytometry on CRL-2134 cells

Binder	Kd [1] [nM]	Kd [2] [nM]	Kd [3] [nM]	Kd [4] [nM]	MOLM-13 T cell apoptosis assay [5] [%]	Kd [6] [nM]
G9.2-17 human IgG4 (antibody, V domains shown) VH: EVQLVESGGGLVQPGGSLRLSCAASGFTVSSSSIHWVRQAPGKGLEWVAYISSSSGYTYYADSVKGRFTISADTSKNTAYLQMNSLRAEDTAVYYCARYWSYPSWWPYRGMDYWGQGTLVTVSS VL: DIQMTQSPSSLSASVGDRVTITCRASQSVSSAVAWYQQKPGKAPKLLIYSASSLYSGVPSRFSGSRSGTDFTLTISSLQPEDFATYYCQQSSTDPITFGQGTKVEIKR	1.6	1.8	0.3	0.41	10	–
G9.2-17 mIgG1 (antibody, V domains shown) VH: EVQLVESGGGLVQPGGSLRLSCAASGFTVSSSSIHWVRQAPGKGLEWVAYISSSSGYTYYADSVKGRFTISADTSKNTAYLQMNSLRAEDTAVYYCARYWSYPSWWPYRGMDYWGQGTLVTVSS VL: DIQMTQSPSSLSASVGDRVTITCRASQSVSSAVAWYQQKPGKAPKLLIYSASSLYSGVPSRFSGSRSGTDFTLTISSLQPEDFATYYCQQSSTDPITFGQGTKVEIKR	–	3.05	0.3	2.9	–	2.91
